From article PMC3036652, “Functional Analysis of an Acid Adaptive DNA Adenine Methyltransferase from Helicobacter pylori 26695” (PLoS ONE, 2011)

Tests used:
HP0593 MTase = molecular target: T1, HP0593 MTase (Helicobacter pylori, UniProt O25315); assay: EMSA of enzyme with […]-labelled duplex […] DNA; type: binding; conditions: on ice, no divalent metal, ternary complex with cognate DNA, indirect read-out
T1 construct: gene HP_0593; full-length, 1797 bp gene in pET14b (NdeI/BamHI), N-terminal His6 tag kept, E. coli BL21(DE3) pLysS; monomer and dimer in solution, functions as dimer
T1 sequence (O25315 1-598): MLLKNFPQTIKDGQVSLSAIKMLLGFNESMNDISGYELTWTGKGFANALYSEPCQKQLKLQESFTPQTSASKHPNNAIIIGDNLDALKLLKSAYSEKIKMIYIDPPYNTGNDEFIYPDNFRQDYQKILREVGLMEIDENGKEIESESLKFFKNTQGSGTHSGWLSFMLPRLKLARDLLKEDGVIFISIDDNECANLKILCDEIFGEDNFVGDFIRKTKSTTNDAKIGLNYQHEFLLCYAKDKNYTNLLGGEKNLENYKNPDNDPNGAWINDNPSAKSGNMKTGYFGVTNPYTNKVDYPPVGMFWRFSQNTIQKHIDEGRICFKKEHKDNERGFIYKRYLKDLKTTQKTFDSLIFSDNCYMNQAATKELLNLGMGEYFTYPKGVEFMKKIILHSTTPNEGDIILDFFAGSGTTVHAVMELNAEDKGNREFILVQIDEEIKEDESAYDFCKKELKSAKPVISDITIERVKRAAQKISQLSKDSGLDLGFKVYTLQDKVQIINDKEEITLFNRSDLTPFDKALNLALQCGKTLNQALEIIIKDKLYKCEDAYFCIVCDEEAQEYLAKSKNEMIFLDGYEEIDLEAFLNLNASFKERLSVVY

[1] = molecular target: HP0593 DNA-(N6-adenine)-methyltransferase (Helicobacter pylori 26695); assay: SEC
[2] = molecular target: HP0593 DNA-(N6-adenine)-methyltransferase (Helicobacter pylori 26695); assay: SEC; reinjection of the dimer peak of the gel filtration; data not shown
[3] = molecular target: HP0593 DNA-(N6-adenine)-methyltransferase (Helicobacter pylori 26695); assay: cross-linking
[4] = molecular target: HP0593 DNA-(N6-adenine)-methyltransferase (Helicobacter pylori 26695); assay: cross-linking; 0.06% and 0.08% glutaraldehyde-treated HP0593 MTase, products analysed by MALDI-MS; data not shown
[5] = molecular target: T2, HP0593 DNA-(N6-adenine)-methyltransferase (HP0593 MTase) (Helicobacter pylori 26695, UniProt O25315 1-598); assay: EMSA; no cofactor; up to 3.0 µM protein; EMSA: 10 mM potassium phosphate pH 5.5, 7 mM β-mercaptoethanol, 10% glycerol, no divalent metal, 10 min on ice, 0.5-5.0 µM protein, ~100 nM DNA, gel 0.5x TBE 4°C; SPR: 10 mM HEPES pH 7.4, 100 mM NaCl, 0.05% P-20, ±1.0 mM MnCl2, 25°C, 1:1 Langmuir global fit; conditions: protein: recombinant; tags: N-terminal His6 (pET14b); label: 32P; blunt
T2 sequence: T1 sequence (O25315 1-598)

[6] = molecular target: T2, HP0593 …; assay: SPR; 1.0 mM MnCl2; EMSA: 10 mM potassium phosphate pH 5.5, 7 mM β-mercaptoethanol, 10% glycerol, no divalent metal, 10 min on ice, 0.5-5.0 µM protein, ~100 nM DNA, gel 0.5x TBE 4°C; SPR: 10 mM HEPES pH 7.4, 100 mM NaCl, 0.05% P-20, ±1.0 mM MnCl2, 25°C, 1:1 Langmuir global fit; conditions: protein: recombinant; tags: N-terminal His6 (pET14b); label: 5' biotin on top strand, immobilized on SA chip; blunt

Nc1ncnc2c1ncn2[C@@H]1O[C@H](C[C@@H](N)CC[C@H](N)C(=O)O)[C@@H](O)[C@H]1O [sinefungin]
EMSA of enzyme with 32P-labelled duplex 2 DNA (HP0593 MTase; 10 µM sinefungin, pH 5.5): which is stabilized by AdoHcy and in some extent by sinefungin

HP0593 DNA-(N6-adenine)-methyltransferase (enzyme)
stoichiometry N [1]: 2
stoichiometry N [2]: 2
stoichiometry N [3]: 2
stoichiometry N [4]: 2

Nc1ncnc2c1ncn2[C@@H]1O[C@H](CSCC[C@H](N)C(=O)O)[C@@H](O)[C@H]1O [AdoHcy]
EMSA of enzyme with 32P-labelled duplex 2 DNA (HP0593 MTase; 5 µM AdoHcy, 10 mM potassium phosphate pH 5.5): This suggested the formation of a stable ternary complex in the presence of AdoHcy

B1: duplex 19 (lacks GCAG) (dsDNA)
DNA 1: GATCAATAGATCCCCGGATCATTTACATT
DNA 2: AATGTAAATGATCCGGGGATCTATTGATC
binding result [5]: no binding

B2: duplex 18 (dsDNA)
DNA 1: GATCAATAGATGCGCAGATCATTTACATT
DNA 2: AATGTAAATGATCTGCGCATCTATTGATC
Kd [6]: 4.58 nM
